The first assay deals with protein A (UniProt P38507). Kind of assay: phage ELISA on coated protein A; heat/cool assay, % of untreated sample. (In an ELISA, binding on a coated surface is turned into a signal by an enzyme label.)
DP47 VH with CDR2 of HEL4, sequence (VH): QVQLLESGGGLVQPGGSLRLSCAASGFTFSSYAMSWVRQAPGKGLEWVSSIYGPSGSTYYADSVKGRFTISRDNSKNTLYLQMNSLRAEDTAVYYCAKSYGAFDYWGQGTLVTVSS
In turn, DP47 VH SYA31-33DED registered a Retained binding to protein A of 67%.

The next assay addresses protein A (UniProt P38507). Kind of assay: phage ELISA on coated protein A; heat/cool assay, % of untreated sample (n = 2).
In turn, DP47 VH SA_31/33_DD yielded a Retained binding to protein A (%) of 52%.

On to DP47 VH SYA31-33DED, for which the Retained binding to protein A (%) worked out at 69%.

As for DP47 VH SYA_31-33_DDD, the Retained binding to protein A (%) came to 66%.

Take DP47 VH SY_31/32_DD: the Retained binding to protein A (%) came to 62%.

The substance DP47 VH SY_31/32_DE gave a Retained binding to protein A (%) of 50%.

For DP47 VH YA_32/33_DD, the Retained binding to protein A (%) was determined as 64%.

As for DP47 VH YA_32/33_ED, the Retained binding to protein A (%) is 59%.

In another assay the target is protein A (UniProt P38507). Kind of assay: phage ELISA on coated protein A; signal after 80 C 10 min then 4 C 10 min as % of the untreated sample (heat/cool assay).
DP47 VH with CDR2 of HEL4 had a Retained binding to protein A of 4%.

Turning to DP47 VH with CDR3 of HEL4, the Retained binding to protein A is 3%.

These data come from US20120207673A1.
